The record followed here is publication PMC4574524.

This experiment has as its target PFD1235w DBLβ3_D4, wild type (P. falciparum 3D7). The experiment is described as follows: SPR. In general terms: SPR reads the build-up and loss of mass on a sensor chip optically.

Usually Kd stands for the equilibrium constant for the complex coming apart. High values mean lower affinity, low ones higher affinity. Usually koff stands for the rate constant with which the complex falls apart. For the substance ICAM-1_D1-D2 (domain or fragment), the equilibrium dissociation constant (Kd) stood at 7.9 nM and the dissociation rate constant (koff) was 0.00167 s⁻¹.
